Data from the supplement of paper PMC10567573.

B1: MTMR15 (parent)
chain: FSPDFTLRNTLKSTSEDSLVKQEC

Variants of: B1
Assay: protein stability index of a GFP-peptide fusion (GPS, HEK-293T) (PSI 1-6); higher = more stable
Details: c terminus: a fixed tail appended
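Note: lentivirally expressed fusions sorted by FACS into six bins by GFP to DsRed ratio, PSI derived from sequencing read proportions per bin multiplied by bin number.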

Variant	protein stability index
S15I	1.73
S15Y	1.83
S15T	1.85
S15V	1.48
S15E	1.82
S15P	1.83
S15F	2.63
S15A	1.64
S15N	1.43
S15G	2.33
S15M	1.99
S15W	2.02
S15H	1.93
S15D	1.95
S15K	1.73
S15L	1.96
S15C	2.71
S15R	2.34
S15Q	1.84
D17F	2.8
D17S	1.45
D17N	1.8
D17T	2.22
D17L	2.36

Variant	protein stability index
D17V	2.06
D17R	1.61
D17Y	2.11
D17Q	2.37
D17G	2.03
D17W	2.6
D17A	1.89
D17I	2.58
D17M	2.07
D17E	2.12
D17C	1.47
D17H	2.34
D17P	2.08
D17K	1.69
L19T	2.56
L19N	2.2
L19F	2.14
L19Y	2.24
L19V	1.66
L19P	1.96
L19D	2.37
L19S	1.97
L19G	2
L19R	2.15

Variant	protein stability index
L19H	2.32
L19W	1.69
L19I	2.5
L19M	2.46
L19C	2.15
L19E	2.1
L19A	1.7
L19K	1.85
L19Q	3.03
S18I	3.61
S18L	2.48
S18E	2.02
S18W	1.75
S18M	2.37
S18V	1.84
S18P	2.05
S18N	1.57
S18A	1.75
S18Y	2.41
S18H	1.92
S18R	2.3
S18D	1.76
S18F	1.87
S18C	1.79

Variant	protein stability index
S18T	2.21
S18K	2.17
S18Q	2.01
S18G	1.76
E16F	2.48
E16L	1.75
E16V	2.68
E16S	2.1
E16A	1.67
E16C	1.98
E16H	2.25
E16P	2.38
E16N	1.93
E16Y	1.83
E16D	2.54
E16T	1.57
E16W	2.38
E16R	1.76
E16Q	2.41
E16M	2.29
E16G	1.93
E16I	1.91
E16K	1.75
K12M	1.81

Variant	protein stability index
K12V	2.14
K12W	3.33
K12D	2.27
K12Y	2.38
K12I	2.6
K12P	1.77
K12R	1.71
K12S	2.04
K12G	2.24
K12A	1.79
K12E	2.67
K12H	1.71
K12N	1.41
K12T	1.67
K12Q	1.92
K12C	2.34
K12F	2.03
K12L	2.28
T14D	2.1
T14A	1.54
T14I	1.62
T14L	2
T14R	1.77
T14F	2.82

Variant	protein stability index
T14N	2.11
T14E	2.64
T14H	1.96
T14W	1.58
T14Y	1.72
T14Q	2.31
T14C	2.78
T14G	2.49
T14M	2.05
T14V	2.43
T14P	1.69
T14K	1.73
T14S	2.1
V20A	2.09
V20F	3.85
V20H	2.19
V20D	2.08
V20C	1.74
V20E	2.12
V20G	1.78
L11P	2.11
L11Y	1.75
L11S	2.04
L11R	1.81

Variant	protein stability index
L11T	1.81
L11V	2.26
L11W	1.81
L11Q	2.06
S13M	2.02
S13K	1.58
S13I	2.56
S13N	2.69
S13W	2.66
S13Q	2.31
S13G	1.81
S13C	2.08
S13E	2.11
S13V	1.97
S13R	3.03
S13Y	2.35
S13P	2.12
S13D	2.02
S13F	2.13
S13A	1.9
S13H	2.42
S13T	1.53
S13L	1.83
